To fix the notation:
B1: GA-binding protein alpha chain, residues 172 to 250; numbered along this chain, Q06546 (parent)
chain: GYRKEQERLGIPYDPIQWSTDQVLHWVVWVMKEFSMTDIDLTTLNISGRELCSLNQEDFFQRVPRGEILWSHLELLRKY

± gives the uncertainty stated by the source.

This data set covers variants of B1. As to the kind of experiment: abundance fitness (aPCA) (normalised: wild type 0, dead -1); higher = more abundant; growth selection in yeast, the domain comes from the species named. To be noted: Homo sapiens.
In the case of GYRKEQERLGIPYDPIQWSTDQVLHWVVWVMKEFSMTDIDLTTLNISGRELCSLHQEDFFQRVPRGEILWSHLELLRKY, the abundance fitness is -0.124 ± 0.063.

GYRKEQERLGIPYDPIQWSTDQVLHWVVWVMKEFSMTDIDLTTLNISGRELCSLAQEDFFQRVPRGEILWSHLELLRKY: the abundance fitness was -0.065 ± 0.041.

On to GYRKEQERLGIPYDPIQWSTDQVLHWVVWVMKEFSMTDIDLTTLNISGRELCSLCQEDFFQRVPRGEILWSHLELLRKY, for which the abundance fitness is -0.124 ± 0.051.

Turning to GYRKEQERLGIPYDPIQWSTDQVLHWVVWVMKEFSMTDIDLTTLNISGRELCSLKQEDFFQRVPRGEILWSHLELLRKY, the abundance fitness was -0.189 ± 0.15.

On to GYRKEQERLGIPYDPIQWSTDQVLHWVVWVMKEFSMTDIDLTTLNISGRELCSLIQEDFFQRVPRGEILWSHLELLRKY, for which the abundance fitness is -0.244 ± 0.086.

In the case of GYRKEQERLGIPYDPIQWSTDQVLHWVVWVMKEFSMTDIDLTTLNISGRELLSLNQEDFFQRVPRGEILWSHLELLRKY, the abundance fitness was -0.077 ± 0.03.

Regarding GYRKEQERLGIPYDPIQWSTDQVLHWVVWVMKEFSMTDIDLTTLNISGRELSSLNQEDFFQRVPRGEILWSHLELLRKY, the abundance fitness was -0.335 ± 0.045.

For the variant GYRKEQERLGIPYDPIQWSTDQVLHWVVWVMKEFSMTDIDLTTLNISGRELGSLNQEDFFQRVPRGEILWSHLELLRKY, the abundance fitness is -0.575 ± 0.041.

Turning to GYRKEQERLGIPYDPIQWSTDQVLHWVVWVMKEFSMTDIDLTTLNISGRELKSLNQEDFFQRVPRGEILWSHLELLRKY, the abundance fitness was -0.887 ± 0.17.

GYRKEQERLGIPYDPIQWSTDQVLHWVVWVMKEFSMTDIDLTTLNISGRELNSLNQEDFFQRVPRGEILWSHLELLRKY: the abundance fitness is -0.47 ± 0.13.

As for GYRKEQERLGIPYDPIQWSTDQVLHWVVWVMKEFSMTDIDLTTLNISGRELYSLNQEDFFQRVPRGEILWSHLELLRKY, the abundance fitness was -0.431 ± 0.14.

Take GYRKEQERLGIPYDPIQWSTDQVLHWVVWVMKEFSMTDIDLTTLNISGRELISLNQEDFFQRVPRGEILWSHLELLRKY: the abundance fitness amounted to 0.076 ± 0.095.

For GYRKEQERLGIPYDPIQWSTDQVLHWVVWVMKEFSMTDIDLTTLNISGRELASLNQEDFFQRVPRGEILWSHLELLRKY, the abundance fitness was -0.22 ± 0.034.

As to GYRKEQERLGIPYDPIQWSTDQVLHWVVWVMKEFSMTDIDLTTLNISGRELFSLNQEDFFQRVPRGEILWSHLELLRKY, the abundance fitness is -0.333 ± 0.064.

GYRKEQERLGIPYDPIQWSTDQVLHWVVWVMKEFSMTDIDLTTLNISGRELESLNQEDFFQRVPRGEILWSHLELLRKY: the abundance fitness was -0.457 ± 0.073.

Consider GYRKEQERLGIPYDPIQWSTDQVLHWVVWVMKEFSMTDIDLTTLNISGRELVSLNQEDFFQRVPRGEILWSHLELLRKY, for which the abundance fitness was -0.122 ± 0.045.

For GYRKEQERLGIPYDPIQWSTDQVLHWVVWVMKEFSMTDIDLTTLNISGRELQSLNQEDFFQRVPRGEILWSHLELLRKY, the abundance fitness was -0.615 ± 0.11.

Turning to GYRKEQERLGIPYDPIQWSTDQVLHWVVWVMKEFSMTDIDLTTLNISGRELPSLNQEDFFQRVPRGEILWSHLELLRKY, the abundance fitness was -1.03 ± 0.2.

In the case of GYRKEQERLGIPYDPIQWSTDQVLHWVVWVMKEFSMTDIDLTTLNISGRELTSLNQEDFFQRVPRGEILWSHLELLRKY, the abundance fitness was -0.226 ± 0.063.

With GYRKEQERLGIPYDPIQWSTDQVLHWVVWVMKEFSMTDIDLTTLNISGREMCSLNQEDFFQRVPRGEILWSHLELLRKY, the abundance fitness was -0.163 ± 0.048.

As to GYRKEQERLGIPYDPIQWSTDQVLHWVVWVMKEFSMTDIDLTTLNISGREPCSLNQEDFFQRVPRGEILWSHLELLRKY, the abundance fitness was -0.746 ± 0.082.

Regarding GYRKEQERLGIPYDPIQWSTDQVLHWVVWVMKEFSMTDIDLTTLNISGREWCSLNQEDFFQRVPRGEILWSHLELLRKY, the abundance fitness is -1.04 ± 0.15.

Regarding GYRKEQERLGIPYDPIQWSTDQVLHWVVWVMKEFSMTDIDLTTLNISGREQCSLNQEDFFQRVPRGEILWSHLELLRKY, the abundance fitness was -0.951 ± 0.27.

With GYRKEQERLGIPYDPIQWSTDQVLHWVVWVMKEFSMTDIDLTTLNISGREICSLNQEDFFQRVPRGEILWSHLELLRKY, the abundance fitness is -0.374 ± 0.072.

As for GYRKEQERLGIPYDPIQWSTDQVLHWVVWVMKEFSMTDIDLTTLNISGRENCSLNQEDFFQRVPRGEILWSHLELLRKY, the abundance fitness was -0.897 ± 0.27.

On to GYRKEQERLGIPYDPIQWSTDQVLHWVVWVMKEFSMTDIDLTTLNISGRERCSLNQEDFFQRVPRGEILWSHLELLRKY, for which the abundance fitness was -0.813 ± 0.064.

Turning to GYRKEQERLGIPYDPIQWSTDQVLHWVVWVMKEFSMTDIDLTTLNISGREECSLNQEDFFQRVPRGEILWSHLELLRKY, the abundance fitness was -0.818 ± 0.13.

For GYRKEQERLGIPYDPIQWSTDQVLHWVVWVMKEFSMTDIDLTTLNISGREACSLNQEDFFQRVPRGEILWSHLELLRKY, the abundance fitness is -0.982 ± 0.1.

Regarding GYRKEQERLGIPYDPIQWSTDQVLHWVVWVMKEFSMTDIDLTTLNISGREHCSLNQEDFFQRVPRGEILWSHLELLRKY, the abundance fitness is -0.928 ± 0.24.

Regarding GYRKEQERLGIPYDPIQWSTDQVLHWVVWVMKEFSMTDIDLTTLNISGREGCSLNQEDFFQRVPRGEILWSHLELLRKY, the abundance fitness was -0.92 ± 0.063.

For GYRKEQERLGIPYDPIQWSTDQVLHWVVWVMKEFSMTDIDLTTLNISGREFCSLNQEDFFQRVPRGEILWSHLELLRKY, the abundance fitness is -0.815 ± 0.12.

With GYRKEQERLGIPYDPIQWSTDQVLHWVVWVMKEFSMTDIDLTTLNISGREKCSLNQEDFFQRVPRGEILWSHLELLRKY, the abundance fitness is -1.13 ± 0.32.

As to GYRKEQERLGIPYDPIQWSTDQVLHWVVWVMKEFSMTDIDLTTLNISGREVCSLNQEDFFQRVPRGEILWSHLELLRKY, the abundance fitness is -0.652 ± 0.047.

Turning to GYRKEQERLGIPYDPIQWSTDQVLHWVVWVMKEFSMTDIDLTTLNISGREDCSLNQEDFFQRVPRGEILWSHLELLRKY, the abundance fitness is -0.786 ± 0.3.

As for GYRKEQERLGIPYDPIQWSTDQVLHWVVWVMKEFSMTDIDLTTLNISGRETCSLNQEDFFQRVPRGEILWSHLELLRKY, the abundance fitness was -0.825 ± 0.1.

The values are drawn from the Human Domainome abundance scans (Beltran et al. 2025).
